B1: lpqA (dsDNA)
DNA 1: GCACCTTCACCGCCCGCCCACAGCCACGCA
DNA 2: TGCGTGGCTGTGGGCGGGCGGTGAAGGTGC
B2: ahpC (dsDNA)
DNA 1: TTTGCCTGACAGCGACTTCACGGCACGATG
DNA 2: CATCGTGCCGTGAAGTCGCTGTCAGGCAAA
B3: tri (three motifs) (dsDNA)
DNA 1: GTACCTCACAGCACTTTCACAGCTTTCTCACAGCATCTATG
DNA 2: CATAGATGCTGTGAGAAAGCTGTGAAAGTGCTGTGAGGTAC
B4: DRs3 (3-bp spacer) (dsDNA)
DNA 1: AAGTACCTCACAGCACTTCACAGCTTTCAT
DNA 2: ATGAAAGCTGTGAAGTGCTGTGAGGTACTT
B5: tetra (four motifs) (dsDNA)
DNA 1: GTACCTCACAGCACTTTCACAGCTTTCTCACAGCTGATTCACAGCATCTATG
DNA 2: CATAGATGCTGTGAATCAGCTGTGAGAAAGCTGTGAAAGTGCTGTGAGGTAC
B6: hisG (dsDNA)
DNA 1: CGCGACCCGCAGCATGCTCACAGCTTTCGA
DNA 2: TCGAAAGCTGTGAGCATGCTGCGGGTCGCG
B7: DR (dsDNA)
DNA 1: ACGATTCACAGCTGATTCACAGCATCTACG
DNA 2: CGTAGATGCTGTGAATCAGCTGTGAATCGT
B8: RD6-half (dsDNA)
DNA 1: CAGAAGTCACAGCACTTGGG
DNA 2: CCCAAGTGCTGTGACTTCTG
B9: RD6 (dsDNA)
DNA 1: AAGTACCTCACAGCACTTTCACAGCTTTCAT
DNA 2: ATGAAAGCTGTGAAAGTGCTGTGAGGTACTT
B10: crystal direct-repeat DNA (dsDNA)
DNA 1: GATTCACAGCTGATTCACAGCATCTA
DNA 2: CTAGATGCTGTGAATCAGCTGTGAAT

One series has as its target T1, PhoP wild type (Mycobacterium tuberculosis, UniProt P71814 1-247). The experiment in a line: ITC; 5 mM MgCl2; ITC: 20 mM HEPES pH 7.5, 100 mM NaCl, 5 mM MgCl2, 25 C, […]. As to conditions: protein: recombinant; tags: N-terminal His-tag removed with TEV; chain copies: 2.
For the molecule B1, the Kd (as a rule, a measure of binding affinity in units of concentration) came out at 347 ± 35.1 nM. On the same count and under the same terms, the figure for B2 is 104 ± 7.2 nM. The same measure, in the same setting: the figure for B3 is 4.6 ± 2.7 nM; for B4 it is 433 ± 17.5 nM; for B5 it is 2.2 ± 0.7 nM. Take B6: the Kd came out at 35.6 ± 4.3 nM.

B7: the Kd was determined as 19.2 ± 2.8 nM.

The next series deals with PhoPC (isolated effector/DNA-binding domain) (Mycobacterium tuberculosis, UniProt P71814 148-247). The experiment in a line: ITC; 5 mM MgCl2; ITC: 20 mM HEPES pH 7.5, 100 mM NaCl, 5 mM MgCl2, 25 C, DNA titrated into protein. As to conditions: protein: recombinant; tags: His-tag removed (similar procedure); chain copies: 2. For orientation: Isothermal titration calorimetry measures the heat released or taken up as one component is titrated into another.
B8: the dissociation constant (Kd) is 12200 ± 1600 nM. On the same count and under the same terms, with B9 the figure was 188 ± 9 nM.

Another series deals with T1, PhoP wild type. The experiment in a line: X-ray crystal structure (2.4 A); Ca2+ at Asp71; 2:1 PhoP:DNA; ITC: 20 mM HEPES pH 7.5, 100 mM NaCl, 5 mM MgCl2, 25 C, […]. As to conditions: protein: recombinant; tags: N-terminal His-tag removed with TEV; chain copies: 2; G/C overhangs.
For the molecule B10, the binding result is reported as “binds”.
